Measurements as given in US20230312684A1 (PINETREE THERAPEUTICS, published 2023).

Experiments:
[1] = molecular target: RSV-F (amino acids 1-529), (Extracellular Domain) protein (His tag), ABIN2006856 (respiratory syncytial virus) (UniProt P03420); test: ELISA, RSV F coated, anti-human IgG-HRP
[2] = molecular target: SARS-CoV-2 (antigen of the ELISA of Example 17; protein not specified) (SARS-CoV-2); test: ELISA by the method of Example 15, SARS-CoV-2 antigen

| Substance | EC50 [1] | EC50 [2] |
| --- | --- | --- |
| SEQ ID NO: 128, b1b2-Fc (NRP1, K358E, K373E, R513E, K514E, K516E) (Fc fusion) | 42.5 nM |  |
| SEQ ID NO: 204, b1b2-Fc-ACE2 (NRP1, K358E, K373E, R513E, K514E, K516E) (Fc fusion) | 91.5 nM |  |
| SEQ ID NO: 139, b1b2-b1b2-Fc (NRP1, E319A, double b1b2) (Fc fusion) |  | 81.7 nM |
